{"source": "paper PMC7869511", "about": "“Computer-aided design of PVR mutants with enhanced binding affinity to TIGIT” (Cell Communication and Signaling : CCS, 2021)", "molecules": {"B1": {"name": "TIGIT-His eukaryotic protein, Q495A1 22-244 (receptor)", "chain": "MMTGTIETTGNISAEKGGSIILQCHLSSTTAQVTQVNWEQQDQLLAICNADLGWHISPSFKDRVAPGPGLGLTLQSLTVNDTGEYFCIYHTYPDGTYTGRIFLEVLESSVAEHGARFQIP", "modifications": "here or on the partner: expressed in eukaryotic cells (glycosylated); His tag omitted; construct limits not given, so the mature extracellular domain (UniProt topology) is used by convention"}, "B2": {"name": "TIGIT-His eukaryotic protein (receptor)", "chain": "B1 chain", "modifications": "expressed in eukaryotic cells (glycosylated); His tag omitted; construct limits not given, so the mature extracellular domain (UniProt topology) is used by convention"}}, "key": {"PVR (Homo sapiens) [1]": {"target": "PVR (Homo sapiens) (UniProt P15151)", "conditions": "cited from earlier work"}, "nectin-2 (Homo sapiens)": {"target": "nectin-2 (Homo sapiens) (UniProt Q92692)", "sequence (Q92692 32-360)": "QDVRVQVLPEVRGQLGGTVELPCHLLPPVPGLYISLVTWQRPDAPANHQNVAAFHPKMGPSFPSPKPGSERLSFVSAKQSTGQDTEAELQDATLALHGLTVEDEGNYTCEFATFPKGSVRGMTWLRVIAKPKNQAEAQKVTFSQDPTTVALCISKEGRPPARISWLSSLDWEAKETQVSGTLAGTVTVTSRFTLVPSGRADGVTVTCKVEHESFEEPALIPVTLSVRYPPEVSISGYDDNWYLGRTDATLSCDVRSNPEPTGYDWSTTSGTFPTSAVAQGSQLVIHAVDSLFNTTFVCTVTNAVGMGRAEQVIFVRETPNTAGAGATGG", "conditions": "cited from earlier work"}, "PVR (Homo sapiens) [2]": {"target": "PVR (Homo sapiens) (UniProt P15151)", "conditions": "cited from earlier work", "remark": "listed apart in the source"}, "[3]": {"target": "T1, wild-type PVR fused with EGFP, extracted membrane protein (human), P15151", "T1 chain": "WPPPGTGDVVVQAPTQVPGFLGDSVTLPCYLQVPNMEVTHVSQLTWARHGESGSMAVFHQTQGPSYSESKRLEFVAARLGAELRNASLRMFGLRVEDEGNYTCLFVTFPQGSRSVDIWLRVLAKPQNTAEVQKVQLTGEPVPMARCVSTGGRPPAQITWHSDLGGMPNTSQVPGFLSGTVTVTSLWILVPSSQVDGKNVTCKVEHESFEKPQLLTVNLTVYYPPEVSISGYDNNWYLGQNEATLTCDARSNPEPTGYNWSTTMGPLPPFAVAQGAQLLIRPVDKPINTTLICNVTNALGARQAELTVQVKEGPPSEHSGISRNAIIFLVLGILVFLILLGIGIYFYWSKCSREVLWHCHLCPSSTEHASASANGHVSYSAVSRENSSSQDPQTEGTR", "experiment": "MST; extracted membrane protein of PVR or PVR mutants fused with EGFP (quantified by EGFP fluorescence) as the fluorescent partner; TIGIT-His serially diluted two-fold from 25 μM to 0.000153 μM", "conditions": "remark: other sources report otherwise"}, "[4]": {"target": "T2, PVR mutant S72W fused with EGFP, extracted membrane protein (human, UniProt P15151 21-417, S72W)", "T2 construct": "poliovirus receptor (PVR, CD155), human; Probably the full-length membrane protein; also called PVRS72W; source: membrane protein extracted, quantified by EGFP fluorescence", "T2 sequence (looked up)": "T1 chain with S52W", "experiment": "MST; extracted membrane protein of PVR or PVR mutants fused with EGFP (quantified by EGFP fluorescence) as the fluorescent partner; TIGIT-His serially diluted two-fold from 25 μM to 0.000153 μM", "conditions": "one partner purified"}, "[5]": {"target": "T3, PVR mutant S72R fused with EGFP, extracted membrane protein (human, UniProt P15151 21-417, S72R)", "T3 construct": "poliovirus receptor (PVR, CD155), human; Probably the full-length membrane protein; also called PVRS72R; source: membrane protein extracted, quantified by EGFP fluorescence", "T3 sequence (looked up)": "T1 chain with S52R", "experiment": "MST; extracted membrane protein of PVR or PVR mutants fused with EGFP (quantified by EGFP fluorescence) as the fluorescent partner; TIGIT-His serially diluted two-fold from 25 μM to 0.000153 μM", "conditions": "one partner purified"}, "[6]": {"target": "T4, PVR mutant S132Q fused with EGFP, extracted membrane protein (human, UniProt P15151 21-417, S132Q)", "T4 construct": "poliovirus receptor (PVR, CD155), human; Probably the full-length membrane protein; also called PVRS132Q; source: membrane protein extracted, quantified by EGFP fluorescence", "T4 sequence (looked up)": "T1 chain with S112Q", "experiment": "MST; extracted membrane protein of PVR or PVR mutants fused with EGFP (quantified by EGFP fluorescence) as the fluorescent partner; TIGIT-His serially diluted two-fold from 25 μM to 0.000153 μM", "conditions": "one partner purified"}, "[7]": {"target": "T5, PVR mutant G131V fused with EGFP, extracted membrane protein (human, UniProt P15151 21-417, G131V)", "T5 construct": "poliovirus receptor (PVR, CD155), human; Probably the full-length membrane protein; also called PVRG131V; source: membrane protein extracted, quantified by EGFP fluorescence", "T5 sequence (looked up)": "T1 chain with G111V", "experiment": "MST; extracted membrane protein of PVR or PVR mutants fused with EGFP (quantified by EGFP fluorescence) as the fluorescent partner; TIGIT-His serially diluted two-fold from 25 μM to 0.000153 μM", "conditions": "one partner purified"}}, "note": "Residue numbers refer to the chain shown, from its start. Read-outs that look alike come from different tables or passages of the source."}
{"molecule": "TIGIT (from UniProt Q495A1)", "values": [{"measurement": "Kd", "setting": "PVR (Homo sapiens) [1]", "value": 3200, "unit": "nM"}, {"measurement": "Kd", "setting": "nectin-2 (Homo sapiens)", "value": 5800, "unit": "nM"}]}
{"molecule": "CD96 (from UniProt P40200)", "values": [{"measurement": "Kd", "setting": "PVR (Homo sapiens) [2]", "value": 10200, "unit": "nM"}]}
{"molecule": "B1", "values": [{"measurement": "Kd", "setting": "[3]", "value": 1150, "unit": "nM"}]}
{"molecule": "B2", "values": [{"measurement": "Kd", "setting": "[4]", "value": 328, "unit": "nM"}, {"measurement": "Kd", "setting": "[5]", "value": 549, "unit": "nM"}, {"measurement": "Kd", "setting": "[6]", "value": 58, "unit": "nM"}, {"measurement": "Kd", "setting": "[7]", "value": 16, "unit": "nM"}]}
